The values that follow come from patent US20220119824A1.

Assay [1] addresses recombinant murine CTLA-4-human IgG1 Fc chimera (R&D Systems) (mouse; human) (UniProt P09793). Briefly: competitive ELISA: mouse CD80 coated (competitor), murine CTLA-4-human IgG1 Fc chimera at 10 ng/ml mixed with scFv supernatant, anti-human IgG1-HRP.
The target is the same in assay [2]. Briefly: competitive ELISA: mouse CD86 coated (competitor), murine CTLA-4-human IgG1 Fc chimera at 10 ng/ml mixed with scFv supernatant, anti-human IgG1-HRP.
Assay [3] concerns the target IL-12 receptor on HEK-Blue™ IL-12 cells (InvivoGen) (UniProt P42701). Briefly: cell-based or functional assay.
Assay [4] deals with mouse TGF-β1 (R&D systems) (mouse) (UniProt P04202). Put plainly: direct ELISA with mouse TGF-β1 on supernatant of transfected HEK293T cells. (In general: An ELISA detects its analyte on a solid surface through an enzyme-linked reagent.)
Assay [5] has the same target. Briefly: direct ELISA with mouse TGF-β1 on concentrated supernatant of transfected HEK293T cells.

As for “Anti-CTLA-4 scFv (ipilimumab scFv antibody fragment)”, the % CD80 Blockade Activity in assay [1] worked out at 7%. Besides, the % CD86 Blockade Activity in assay [2] worked out at 32.5%.

In assay [3], Human membrane bound IL-12p70 (ligand) had an STAT4-SEAP reporter in HEK-Blue IL-12 cells co-cultured with transfected HEK cells (Absorbance/% GFP) (Absorbance/% GFP) of 0.237.

Turning to Mouse membrane bound IL-12p70 (ligand), in assay [3], the STAT4-SEAP reporter in HEK-Blue IL-12 cells co-cultured with transfected HEK cells (Absorbance/% GFP) (Absorbance/% GFP) is 0.117.

Regarding “Soluble mouse TGFβ receptor II Fc (from UniProt Q62312 24-166) (Fc fusion)”, the Absorbance at 450 nm (absorbance at 450 nm) in assay [4] is 1.51; in assay [5], 1.52.

The substance “huIL-12p70 (soluble human IL-12p70) (from UniProt P29460 23-328; P29459 23-219) (ligand)” came in with an STAT4-SEAP reporter in HEK-Blue IL-12 cells co-cultured with transfected HEK cells (Absorbance/% GFP) (Absorbance/% GFP) in assay [3] of 0.11.

Substance “muIL-12p70 (soluble murine IL-12p70) (from UniProt P43432 23-335; P43431 23-215) (ligand)” had an STAT4-SEAP reporter in HEK-Blue IL-12 cells co-cultured with transfected HEK cells (Absorbance/% GFP) (Absorbance/% GFP) in assay [3] of 0.11.
